Test results reported in US20250163186A1 (PHYLAXIS BIOSCIENCE, published 2025).
Read-outs that look alike come from different tables or passages of the source.

How the values were obtained:
Assay in all cases: flow cytometry, 293 cells expressing human IgE CH2-4
[1] = target: T1, CH2-4 constant domains of human IgE linked to a transmembrane protein, on 293 cells (human, UniProt P01854-1 104-428)
T1 construct: domain: CH2-4 constant domains; also called human IgE-expressing 293 cells
Experimental: (§1) First, 25 μg of DNA was added to Opti-MEM Reduced Serum Medium (Gibco) mixed with 75 μL of 40 kDa Polyethylenimine (PEI) for a final concentration of 1 μg DNA and 2.5 μg PEI per mL of culture volume. The plasmid DNA was allowed to pre-complex with PEI for 15 minutes before transferring the mixture to 25 mL of 293 cells in a shake flask at a density of 2×10⁶ cells/mL. […] Next, 50 μL of cells were transferred to wells of a round-bottom 96-well assay plate for a total of 50,000 293 cells per well. In a separate 96-well plate, monomeric VHH-hIgG1-Fc fusion proteins were titrated 1:5 in a 8-point dilution series starting at 1 μM in FACS Buffer with the 8th point containing no antibody. 50 μL from each antibody dilution was added to wells containing 50 μL of FACS Buffer with transfected 293 cells which produced a 2-fold dilution of the antibody concentrations from the dilution series resulting in a 500 nM final, starting concentration of the test article titration. The test articles and 293 cells were incubated together at 4° C. for 30 minutes. Next, the 96-well plates were centrifuged at 400×g for 5 minutes and the FACS buffer containing unbound antibody was decanted. Cells were washed 1× with 150 μL 4° C. FACS Buffer. […] The cells were incubated with the fluorophore conjugated detection antibody at 4° C. for 20 minutes. 293 cells were then centrifuged and washed once as described above. Cell pellets were resuspended in 30 μL FACS Buffer and analyzed on an iQue Screener Plus flow cytometer (Sartorius, IntelliCyt) with a 1 second sip time and 1 second void time. Mean fluorescent intensity was calculated using iQue onboard software gating on GFP+ or citrine+ cells.

[2] = target: T1, CH2-4 constant domains of human IgE …; remark: listed apart in the source
Experimental: as §1

[3] = target: T1, CH2-4 constant domains of human IgE …; remark: listed apart in the source
Experimental: as §1

[4] = target: T1, CH2-4 constant domains of human IgE …; remark: listed apart in the source
Experimental: as §1

T1 sequence (P01854 other isoform, or with tags, fused parts or gaps): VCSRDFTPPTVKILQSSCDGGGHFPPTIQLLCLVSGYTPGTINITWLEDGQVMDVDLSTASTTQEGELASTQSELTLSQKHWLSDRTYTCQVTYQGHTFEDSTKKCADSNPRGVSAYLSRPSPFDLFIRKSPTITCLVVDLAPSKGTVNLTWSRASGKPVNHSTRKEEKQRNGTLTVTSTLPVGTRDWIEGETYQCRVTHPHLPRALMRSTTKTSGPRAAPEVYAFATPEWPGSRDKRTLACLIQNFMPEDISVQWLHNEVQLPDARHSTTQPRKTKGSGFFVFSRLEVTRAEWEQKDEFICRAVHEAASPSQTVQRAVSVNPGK

| Bmax [1] | Kd [1] | Bmax [3] | Kd [3] | further results | Binder |
| --- | --- | --- | --- | --- | --- |
| 1.38e+06 MFI | 2.62 nM |  |  |  | hzB10v40 monomeric VHH-hIgG1-Fc fusion (Fc NNT) (Fc fusion, Humanized variants were tested as monomeric fusions with the non-dimerizing Fc NNT) EVQLLESGGGEVQPGGSLRLSCVASGLTFSSYNMGWLRQAPGKEREFVGLSGSSSTSTYYAESVKGRFTISRDNAKNTVYLQMTSLRAEDTAVYYCAARRLLSTYWSDRSWDFWGQGTLVTVEPGGPSVFLFPPKPKDTLMISRTPEVTCVVVDVSHEDPEVKFNWYVDGVEVHNAKTKPREEQYNSTYRVVSVLTVLHQDWLNGKEYKCKVSNKALPAPIEKTISKAKGQPREPQVYTLPPSRDELTKNQVNLTCLVKGFYPSDIAVEWESNGQPENNYKTTPPVLDSDGSFFLNSTLTVDKSRWQQGNVFSCSVMHEALHNHYTQKSLSLSPGK |
| 1.42e+06 MFI | 2.18 nM |  |  |  | hzB10v43-NNT (Fc fusion, monomeric) VHH-Fc: EVQLLESGGGEVQPGGSLRLSCVASGLTFSSYNMGWLRQAPGKEREFVGLSGSSSTSTYYAESVKGRFTISRDTSKNTVYLQMTSLRAEDTAVYYCAARRLLSTYWSDRSWDFWGQGTLVTVEPGGPSVFLFPPKPKDTLMISRTPEVTCVVVDVSHEDPEVKFNWYVDGVEVHNAKTKPREEQYNSTYRVVSVLTVLHQDWLNGKEYKCKVSNKALPAPIEKTISKAKGQPREPQVYTLPPSRDELTKNQVNLTCLVKGFYPSDIAVEWESNGQPENNYKTTPPVLDSDGSFFLNSTLTVDKSRWQQGNVFSCSVMHEALHNHYTQKSLSLSPGK |
| 1.45e+06 MFI | 2.27 nM |  |  |  | hzB10v42-NNT (Fc fusion, monomeric) VHH-Fc: EVQLLESGGGEVQPGGSLRLSCVASGLTFSSYNMGWLRQAPGKEREFVGLSGSSSTSTYYAESVKGRFTISRDSSKNTVYLQMTSLRAEDTAVYYCAARRLLSTYWSDRSWDFWGQGTLVTVEPGGPSVFLFPPKPKDTLMISRTPEVTCVVVDVSHEDPEVKFNWYVDGVEVHNAKTKPREEQYNSTYRVVSVLTVLHQDWLNGKEYKCKVSNKALPAPIEKTISKAKGQPREPQVYTLPPSRDELTKNQVNLTCLVKGFYPSDIAVEWESNGQPENNYKTTPPVLDSDGSFFLNSTLTVDKSRWQQGNVFSCSVMHEALHNHYTQKSLSLSPGK |
| 1.33e+06 MFI | 2.26 nM |  |  |  | hzB10v41-NNT (Fc fusion, monomeric) VHH-Fc: EVQLLESGGGEVQPGGSLRLSCVASGLTFSSYNMGWLRQAPGKEREFVGLSGSSSTSTYYAESVKGRFTISRDQSKNTVYLQMTSLRAEDTAVYYCAARRLLSTYWSDRSWDFWGQGTLVTVEPGGPSVFLFPPKPKDTLMISRTPEVTCVVVDVSHEDPEVKFNWYVDGVEVHNAKTKPREEQYNSTYRVVSVLTVLHQDWLNGKEYKCKVSNKALPAPIEKTISKAKGQPREPQVYTLPPSRDELTKNQVNLTCLVKGFYPSDIAVEWESNGQPENNYKTTPPVLDSDGSFFLNSTLTVDKSRWQQGNVFSCSVMHEALHNHYTQKSLSLSPGK |
|  |  |  |  | Bmax [2]: 2.72e+06 MFI; Kd [2]: 2.37 nM | hzB10v12-NNT (Fc fusion, monomeric) VHH-Fc: EVQLVQSGGELVQAGGSLRLSCVASGLTFSSYNMGWLRQAPGKEREFVGMSGSSSTSTYYADSVKGRFTISRDNSKNTVYLQMNSLKPEDTAVYYCAARRVLSTYWSDRSWDFWGQGTQVTVKPGGPSVFLFPPKPKDTLMISRTPEVTCVVVDVSHEDPEVKFNWYVDGVEVHNAKTKPREEQYNSTYRVVSVLTVLHQDWLNGKEYKCKVSNKALPAPIEKTISKAKGQPREPQVYTLPPSRDELTKNQVNLTCLVKGFYPSDIAVEWESNGQPENNYKTTPPVLDSDGSFFLNSTLTVDKSRWQQGNVFSCSVMHEALHNHYTQKSLSLSPGK |
|  |  | 1.72e+06 MFI | 6.4 nM |  | hzB10v21-NNT (Fc fusion, monomeric) VHH-Fc: EVQLLESGGGEVQPGGSLRLSCVASGLTFSSYNMGWLRQAPGKEREFVGLSGSSSTSTYYADSVKGRFTISRDNSKNTVYLQMSSLKPEDTAVYYCAARRLLSTYWSDRSWDFWGQGTQVTVEPGGPSVFLFPPKPKDTLMISRTPEVTCVVVDVSHEDPEVKFNWYVDGVEVHNAKTKPREEQYNSTYRVVSVLTVLHQDWLNGKEYKCKVSNKALPAPIEKTISKAKGQPREPQVYTLPPSRDELTKNQVNLTCLVKGFYPSDIAVEWESNGQPENNYKTTPPVLDSDGSFFLNSTLTVDKSRWQQGNVFSCSVMHEALHNHYTQKSLSLSPGK |
|  |  | 2.01e+06 MFI | 2.8 nM |  | hzB10v25-NNT (Fc fusion, monomeric) VHH-Fc: EVQLLESGGGEVQPGGSLRLSCVASGLTFSSYNMGWLRQAPGKEREFVSLSGSSSTSTYYADSVKGRFTISRDNSKNTVYLQMNSLKPEDTAVYYCAARRLLSTYWSDRSWDFWGQGTQVTVEPGGPSVFLFPPKPKDTLMISRTPEVTCVVVDVSHEDPEVKFNWYVDGVEVHNAKTKPREEQYNSTYRVVSVLTVLHQDWLNGKEYKCKVSNKALPAPIEKTISKAKGQPREPQVYTLPPSRDELTKNQVNLTCLVKGFYPSDIAVEWESNGQPENNYKTTPPVLDSDGSFFLNSTLTVDKSRWQQGNVFSCSVMHEALHNHYTQKSLSLSPGK |
|  |  | 1.92e+06 MFI | 2.52 nM |  | hzB10v24-NNT (Fc fusion, monomeric) VHH-Fc: EVQLLESGGGEVQPGGSLRLSCVASGLTFSSYNMGWVRQAPGKEREFVGLSGSSSTSTYYADSVKGRFTISRDNSKNTVYLQMNSLKPEDTAVYYCAARRLLSTYWSDRSWDFWGQGTQVTVEPGGPSVFLFPPKPKDTLMISRTPEVTCVVVDVSHEDPEVKFNWYVDGVEVHNAKTKPREEQYNSTYRVVSVLTVLHQDWLNGKEYKCKVSNKALPAPIEKTISKAKGQPREPQVYTLPPSRDELTKNQVNLTCLVKGFYPSDIAVEWESNGQPENNYKTTPPVLDSDGSFFLNSTLTVDKSRWQQGNVFSCSVMHEALHNHYTQKSLSLSPGK |
|  |  | 1.96e+06 MFI | 1.05 nM |  | hzB10v23-NNT (Fc fusion, monomeric) VHH-Fc: EVQLLESGGGEVQPGGSLRLSCVASGLTFSSYNMGWLRQAPGKEREFVGLSGSSSTSTYYADSVKGRFTISRDNSKNTVYLQMNSLKAEDTAVYYCAARRLLSTYWSDRSWDFWGQGTQVTVEPGGPSVFLFPPKPKDTLMISRTPEVTCVVVDVSHEDPEVKFNWYVDGVEVHNAKTKPREEQYNSTYRVVSVLTVLHQDWLNGKEYKCKVSNKALPAPIEKTISKAKGQPREPQVYTLPPSRDELTKNQVNLTCLVKGFYPSDIAVEWESNGQPENNYKTTPPVLDSDGSFFLNSTLTVDKSRWQQGNVFSCSVMHEALHNHYTQKSLSLSPGK |
|  |  |  | 1.43 nM |  | hzB10v26-NNT (Fc fusion, monomeric) VHH-Fc: EVQLLESGGGEVQPGGSLRLSCVASGLTFSSYNMGWLRQAPGKEREFVGMSGSSSTSTYYADSVKGRFTISRDNSKNTVYLQMNSLKPEDTAVYYCAARRMLSTYWSDRSWDFWGQGTQVTVKPGGPSVFLFPPKPKDTLMISRTPEVTCVVVDVSHEDPEVKFNWYVDGVEVHNAKTKPREEQYNSTYRVVSVLTVLHQDWLNGKEYKCKVSNKALPAPIEKTISKAKGQPREPQVYTLPPSRDELTKNQVNLTCLVKGFYPSDIAVEWESNGQPENNYKTTPPVLDSDGSFFLNSTLTVDKSRWQQGNVFSCSVMHEALHNHYTQKSLSLSPGK |
|  |  | 2.08e+06 MFI | 2.39 nM |  | hzB10v22-NNT (Fc fusion, monomeric) VHH-Fc: EVQLLESGGGEVQPGGSLRLSCVASGLTFSSYNMGWLRQAPGKEREFVGLSGSSSTSTYYADSVKGRFTISRDNSKNTVYLQMNSLRPEDTAVYYCAARRLLSTYWSDRSWDFWGQGTQVTVEPGGPSVFLFPPKPKDTLMISRTPEVTCVVVDVSHEDPEVKFNWYVDGVEVHNAKTKPREEQYNSTYRVVSVLTVLHQDWLNGKEYKCKVSNKALPAPIEKTISKAKGQPREPQVYTLPPSRDELTKNQVNLTCLVKGFYPSDIAVEWESNGQPENNYKTTPPVLDSDGSFFLNSTLTVDKSRWQQGNVFSCSVMHEALHNHYTQKSLSLSPGK |
|  |  |  |  | Bmax [2]: 2.82e+06 MFI; Kd [2]: 3.49 nM | hzB10v13-NNT (Fc fusion, monomeric) VHH-Fc: EVQLVQSGGELVQAGGSLRLSCVASGLTFSSYNMGWLRQAPGKEREFVGMSGSSSTSTYYAESVKGRFTISRDNAKNTVYLQMNSLKPEDTAVYYCAARRMLSTYWSDRSWDFWGQGTQVTAKPGGPSVFLFPPKPKDTLMISRTPEVTCVVVDVSHEDPEVKFNWYVDGVEVHNAKTKPREEQYNSTYRVVSVLTVLHQDWLNGKEYKCKVSNKALPAPIEKTISKAKGQPREPQVYTLPPSRDELTKNQVNLTCLVKGFYPSDIAVEWESNGQPENNYKTTPPVLDSDGSFFLNSTLTVDKSRWQQGNVFSCSVMHEALHNHYTQKSLSLSPGK |
|  |  |  |  | Kd [4]: 0.893 nM; Bmax [2]: 2.25e+06 MFI; Kd [2]: 0.893 nM | Anti-IgE sdAb B10 (parental B10 VHH, dimeric VHH-hIgG1-Fc xELL fusion) (Fc fusion) EVQLVQSGGELVQAGGSLRLSCVASGLTFSSYNMGWLRQAPGKEREFVGMSGSSSTSTYYADSVKGRFTISRDNSKNTVYLQMNSLKPEDTAVYYCAARRMLSTYWSDRSWDFWGQGTQVTVKPDKTHTCPPCPAPGGPSVFLFPPKPKDTLMISRTPEVTCVVVDVSHEDPEVKFNWYVDGVEVHNAKTKPREEQYNSTYRVVSVLTVLHQDWLNGKEYKCKVSNKALPAPIEKTISKAKGQPREPQVYTLPPSRDELTKNQVSLTCLVKGFYPSDIAVEWESNGQPENNYKTTPPVLDSDGSFFLYSKLTVDKSRWQQGNVFSCSVMHEALHNHYTQKSLSLSPGK |
